Among the data in PMC8423902 are stoichiometry N values, retold here.

This test addresses trimeric SARS-CoV-2 ectodomain (S 6P trimer, residues 16-1206) (SARS-CoV-2) (UniProt P0DTC2). Description: cryo-EM structure.

“trimeric SARS-CoV-2 ectodomain (S 6P trimer, residues 16-1206) (from UniProt P0DTC2 16-1206)”: the stoichiometry N (in general, the number of molecules, sites or subunits per partner or assembly) was determined as 3.
